We go through one molecule from paper PMC12043044, “Synthesis of Selectively ^13C/^2H/^15N‐ Labeled Arginine to Probe Protein Conformation and Interaction by NMR Spectroscopy” (Chemistry (Weinheim an Der Bergstrasse, Germany), 2025).

This assay addresses T1, human ubiquitin (human, UniProt P0CG48 1-76).
T1 construct: ubiquitin, human, the 76 amino acid-long protein (cut product of the polyubiquitin or ubiquitin-ribosomal fusion precursors); Isotope-labelled only (uniformly 15N, arginines 13Cdelta/2Hbeta,gamma/15Nepsilon); No tag is mentioned and the purification uses none; also called arginine-labeled ubiquitin; source: E. coli BL21(DE3), pET-21a(+), purified (heat shock at 70 °C, anion exchange, size …)
Kind of assay: NMR titration; 70 µM arginine-labeled (U-15N, 13Cδ/2Hβγ/15Nε Arg) ubiquitin titrated with increasing amounts of unlabeled Sla1 SH3-3; 50 mM Tris-HCl, pH 8.0, 25 °C; 1H-13C HSQC and 1H-15N SOFAST-HMQC, chemical shift perturbations. The settings on record: both partners purified.

B1: third SH3 domain (SH3-3) of yeast endocytic protein Sla1 (domain or fragment)
chain: MASKSKKRGIVQYDFMAESQDELTIKSGDKVYILDDKKSKDWWMCQLVDSGKSGLVPAQFIEPVRDKKHTE
notes: Sla1, yeast, third SH3 domain (SH3-3); residues E367, E371 and F409 are named as lying in the domain (PDB 2JT4); PDB 2JT4 is the cited NMR model of the complex with ubiquitin and may hold other limits; Plasmid bought from GeneCust; No removal of the tag is described; also called Sla1 SH3-3; source: cell-free expression (E. coli S15 extract, pIVEX2.3d vector), purified (HisTrap FF)
Take B1: the binding result is recorded as “binds”.
